The values that follow come from article PMC10698194.

This assay concerns the target mouse KOR-EGFP (mouse) (UniProt P33534).

Sequence of mouse KOR-EGFP (mouse) (P33534 whole entry): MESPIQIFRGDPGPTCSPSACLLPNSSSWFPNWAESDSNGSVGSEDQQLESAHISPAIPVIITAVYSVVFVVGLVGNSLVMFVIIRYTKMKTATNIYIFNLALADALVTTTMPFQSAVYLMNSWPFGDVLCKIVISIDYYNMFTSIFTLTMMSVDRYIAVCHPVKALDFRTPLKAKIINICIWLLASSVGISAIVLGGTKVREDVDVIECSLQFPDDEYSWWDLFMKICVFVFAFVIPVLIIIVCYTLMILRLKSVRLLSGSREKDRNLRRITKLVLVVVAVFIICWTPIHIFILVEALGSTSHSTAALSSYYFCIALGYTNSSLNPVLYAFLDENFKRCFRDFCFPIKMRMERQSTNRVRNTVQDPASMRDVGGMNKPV

dynorphin (dyn) A_(1-13) (peptide) yielded a β-arrestin-2 recruitment (BRET), EC50 of 31 nM.
